According to patent US20230270857A1:

Target: CD3 on ex vivo expanded human T cells (Homo sapiens) (UniProt P07766)
Test: flow cytometry referenced to quantum beads

Row | molar amount of BsAb bound per T cell (zeptomoles per T cell) | Substance
1 | 1 to 35 | GD2-BsAb (hu3F8-BsAb, anti-GD2 hu3F8 x anti-CD3 huOKT3, IgG-[L]-scFv format) (bispecific antibody)
2 | 1 to 35 | HER2-BsAb (trastuzumab x huOKT3, IgG-[L]-scFv format) (bispecific antibody)
